Drawing on PMC3918160, “Biochemical studies of the multicopper oxidase (small laccase) from Streptomyces coelicolor using bioactive phytochemicals and site-directed mutagenesis” (Microbial Biotechnology, 2013), this text covers Km and kcat for two proteins.

Substrate in the data set “purified protein”: O=c1c(O)c(-c2cc(O)c(O)c(O)c2)oc2cc(O)cc(O)c12
The data set can be described thus: purified protein. Conditions: 60°C, optimal pH for the substrate, 5% (v/v) DMSO.

Substrate in data set [1]: CCn1c(=NN=c2sc3cc(S(=O)(=O)O)ccc3n2CC)sc2cc(S(=O)(=O)O)ccc21
The data set can be described thus: initial rates, absorbance, Michaelis-Menten fit. It counts as biochemical, Streptomyces coelicolor. Conditions: 60°C, optimal pH for the substrate.

Substrate in data set [2]: COc1cccc(OC)c1O
The data set can be described thus: initial rates, absorbance, Michaelis-Menten fit. Conditions: 60°C, optimal pH for the substrate. Format: biochemical, Streptomyces coelicolor.

Substrate in data set [3]: O=c1c(O)c(-c2ccc(O)c(O)c2)oc2cc(O)cc(O)c12
The data set can be described thus: initial rates, absorbance, Michaelis-Menten fit. It counts as biochemical, Streptomyces coelicolor. Conditions: 60°C, optimal pH for the substrate, 5% (v/v) DMSO.

Substrate in data set [4]: O=c1c(O)c(-c2ccc(O)cc2O)oc2cc(O)cc(O)c12
The data set can be described thus: initial rates, absorbance, Michaelis-Menten fit. Conditions: 60°C, optimal pH for the substrate. It counts as biochemical, Streptomyces coelicolor.

B1: small laccase (SLAC), SCO6712 (Streptomyces coelicolor A3(2)) (protein)
chain: AKGITARTAPAGGEVRHLKMYAEKLADGQMGYGFEKGKASVPGPLIEVNEGDTLHIEFTNTMDVRASLHVHGLDYEISSDGTAMNKSDVEPGGTRTYTWRTHKPGRRDDGTWRPGSAGYWHYHDHVVGTEHGTGGIRNGLYGPVIVRRKGDVLPDATHTIVFNDMTINNRKPHTGPDFEATVGDRVEIVMITHGEYYHTFHMHGHRWADNRTGILTGPDDPSRVIDNKITGPADSFGFQIIAGEGVGAGAWMYHCHVQSHSDMGMVGLFLVKKPDGTIPGYEPHEHGGATAKSGESGEPTGGAAAHEHEH
What is called Km is the concentration of substrate that gives half-maximal velocity. Broadly, the kcat is the number of substrate molecules converted per active site and unit of time at saturation. Take B1: the Michaelis constant (Km) was 900 ± 300 µM in the data set “purified protein”; 800 ± 100 µM in data set [1] (universal buffer); 1100 ± 200 µM in data set [2] (universal buffer); 1200 ± 400 µM in data set [3]; 1500 ± 200 µM in data set [4] (5% (v/v) DMSO). Further, the turnover number (kcat) in the data set “purified protein” is 8.1 ± 0.8 s⁻¹.

B2: small laccase (SLAC), SCO6712 (Streptomyces coelicolor A3(2); S292A) (protein)
chain: AKGITARTAPAGGEVRHLKMYAEKLADGQMGYGFEKGKASVPGPLIEVNEGDTLHIEFTNTMDVRASLHVHGLDYEISSDGTAMNKSDVEPGGTRTYTWRTHKPGRRDDGTWRPGSAGYWHYHDHVVGTEHGTGGIRNGLYGPVIVRRKGDVLPDATHTIVFNDMTINNRKPHTGPDFEATVGDRVEIVMITHGEYYHTFHMHGHRWADNRTGILTGPDDPSRVIDNKITGPADSFGFQIIAGEGVGAGAWMYHCHVQAHSDMGMVGLFLVKKPDGTIPGYEPHEHGGATAKSGESGEPTGGAAAHEHEH
B2: the results for the Michaelis constant (Km) in data set [1], in data set [2] and in data set [4] (DMSO) were 2400 ± 200 µM, 120 ± 20 µM and 1600 ± 400 µM, respectively. Moreover, the kcat stood at 11.1 ± 0.3 s⁻¹ in data set [1], 0.93 ± 0.02 s⁻¹ in data set [2] and 4.0 ± 0.4 s⁻¹ in data set [4] (DMSO).
